Target: T1, ToAubZL (Aureochrome1 bZIP+LOV) (Thalassiosira oceanica, UniProt K0SY93 276-520)
T1 sequence: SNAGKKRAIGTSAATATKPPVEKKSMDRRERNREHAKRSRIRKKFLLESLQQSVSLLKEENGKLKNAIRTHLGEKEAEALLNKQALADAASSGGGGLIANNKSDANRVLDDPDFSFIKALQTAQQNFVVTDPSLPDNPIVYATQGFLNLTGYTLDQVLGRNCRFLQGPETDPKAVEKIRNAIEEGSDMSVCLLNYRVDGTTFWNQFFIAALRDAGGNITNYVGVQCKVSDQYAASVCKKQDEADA
Assay: EMSA

B1: Aureo-box substrate DNA (dsDNA)
DNA 1: TGTAGCGTCTGACGTGGTTCCCAC
DNA 2: GTGGGAACCACGTCAGACGCTACA
  binding result: binds

From paper doi:10.1101/2025.03.07.642083
